Consider one molecule from patent US20190211098A1 (Genentech, published 2019).

One test has as its target T1, NPDC1-His (human, UniProt Q9NQX5 35-181, limits assumed).
T1 construct: not shown: His tag
T1 sequence: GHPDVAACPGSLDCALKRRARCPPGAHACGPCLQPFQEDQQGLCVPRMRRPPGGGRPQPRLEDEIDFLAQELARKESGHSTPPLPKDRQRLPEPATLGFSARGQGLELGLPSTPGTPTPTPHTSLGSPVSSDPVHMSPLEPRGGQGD
Kind of test: SPR, NPDC1-His binding to PILRA variant.

Test [1] deals with T2, HSV-1 glycoprotein B, full length, expressed on transfected 293T cells (human herpes simplex virus type-1, UniProt P06437 31-904).
T2 construct: Construct cloned from EF157316 (strain KOSc); also called HSV-1 gB; human herpesvirus 1 strain KOSc glycoprotein B (EF157316)
Kind of test: flow cytometry, soluble PILRA-mFc 50 ug/ml on ligand-transfected 293T cells. (In general: A flow cytometer gives signals particle by particle.)

The target in test [2] is T3, Full length myc-DDK tagged PIANP, expressed on transfected 293T cells (human, UniProt Q8IYJ0 32-282).
T3 construct: Bought construct (Origene Cat. No. RC207868); also called myc-PIANP; C12orf53 (human); not shown: myc-DDK tag of the Origene construct RC207868
T3 sequence: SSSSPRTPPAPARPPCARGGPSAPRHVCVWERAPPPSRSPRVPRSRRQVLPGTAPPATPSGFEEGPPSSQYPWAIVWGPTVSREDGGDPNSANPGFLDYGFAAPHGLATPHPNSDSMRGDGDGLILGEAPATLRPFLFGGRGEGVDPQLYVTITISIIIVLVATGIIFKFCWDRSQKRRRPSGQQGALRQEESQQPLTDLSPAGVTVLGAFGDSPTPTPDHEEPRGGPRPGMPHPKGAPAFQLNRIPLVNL
Described as above.

B1: PILRA G78 variant extracellular domain fused to murine IgG2a Fc (Fc fusion)
chain: QPSGSTGSGPSYLYGVTQPKHLSASMGGSVEIPFSFYYPWELATAPDVRISWRRGHFHGQSFYSTRPPSIHKDYVNRLFLNWTEGQKSGFLRISNLQKQDQSVYFCRVELDTRSSGRQQWQSIEGTKLSITQAVTTTTQRPSSMTTTWRLSSTTTTTGLRVTQGKRRSDSWHISLET
notes: Made in CHO cells, protein A/G purified; also called PILRA-mFc G78; PILRA-Fc G78; not shown: Fc region of murine IgG2a, C-terminal tag
A word on the Kd: it is the constant that tells how readily two partners part at equilibrium. By kon is commonly meant the rate constant with which the complex forms. A lower kon goes with slower complex formation. In the test with NPDC1-His, B1 registered a Kd of 16.8 nM. The same molecule had a kon in the test with NPDC1-His of 22000 M⁻¹ s⁻¹. Moreover, the binding result in test [1] and in test [2] was “binds” in each case.
